Test results as given in patent US20230265151A1, “GIP/GLP1 CO-AGONIST COMPOUNDS” (priority 2020, published 2023).
Changes are numbered by the printed parent chain.

T1: human GIP receptor (human, UniProt P48546 22-466)
T1 sequence (looked up): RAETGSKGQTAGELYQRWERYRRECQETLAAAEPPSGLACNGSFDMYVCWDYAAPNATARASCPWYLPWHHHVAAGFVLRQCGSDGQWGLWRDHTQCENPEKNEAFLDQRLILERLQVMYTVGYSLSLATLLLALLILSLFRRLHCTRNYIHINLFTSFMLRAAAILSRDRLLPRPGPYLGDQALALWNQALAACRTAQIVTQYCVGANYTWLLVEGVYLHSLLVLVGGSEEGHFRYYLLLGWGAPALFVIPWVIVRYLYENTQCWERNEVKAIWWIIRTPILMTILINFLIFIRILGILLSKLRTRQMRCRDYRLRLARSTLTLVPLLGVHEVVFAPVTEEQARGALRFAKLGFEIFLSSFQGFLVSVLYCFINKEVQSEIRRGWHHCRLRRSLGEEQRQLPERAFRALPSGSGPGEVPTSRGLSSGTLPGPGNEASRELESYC

B1: Y-Aib-EGT-αMeF(2F)-TSD-4Pal-SI-αMeL-LD-Orn-IAQ-Aib-EFIK((2-[2-(2-Amino-ethoxy)-ethoxy]-acetyl)2-CO-(CH2)12-CO2H)-αMeY-LIEGGPSSGAPPP … (peptide)
peptide: YXEGTXTSDXSIXLDXIAQXEFIKXLIEGGPSSGAPPPSK
modifications: Aib2, αMeF(2F)6, 4Pal10, αMeL13, Orn16, Aib20, αMeY25; acylated K24, K40 (groups as in name); C-terminal amide
B2: Y-Aib-EGT-αMeF(2F)-TSD-4Pal-SI-αMeL-LD-Orn-IAQ-Aib-EFI-(D-Glu)-αMeY-LIK((2-[2-(2-Amino-ethoxy)-ethoxy]-acetyl)2-(γ-Glu)-(4-(4-tert-butylphenyl)butanoyl))GGPSSGA … (peptide)
peptide: B1 peptide with K24X, E28K
modifications: Aib2, αMeF(2F)6, 4Pal10, αMeL13, Orn16, Aib20, D-Glu24, αMeY25; acylated K28, K40 (groups as in name); C-terminal amide
B3: Y-Aib-EGT-αMeF(2F)-TSD-4Pal-αMeS-I-αMeL-LD-Orn-IAQ-Aib-K((2-[2-(2-Amino-ethoxy)-ethoxy]-acetyl)2-(γ-Glu)-CO-(CH2)12-CO2H)FIK((2-[2-(2-Amino-ethoxy)-ethoxy]-acet … (peptide)
peptide: YXEGTXTSDXXIXLDXIAQXKFIKXLIEGGPSSGAPPPS
modifications: Aib2, αMeF(2F)6, 4Pal10, αMeS11, αMeL13, Orn16, Aib20, αMeY25; acylated K21, K24 (groups as in name); C-terminal amide
B4: Y-Aib-EGT-αMeF(2F)-TSD-4Pal-αMeS-I-αMeL-LD-Orn-IAQ-Aib-EFIK((2-[2-(2-Amino-ethoxy)-ethoxy]-acetyl)2-(γ-Glu)-CO-(CH2)12-CO2H)-αMeY-LIK((2-[2-(2-Amino-ethoxy)-eth … (peptide)
peptide: B3 peptide with K21E, E28K
modifications: Aib2, αMeF(2F)6, 4Pal10, αMeS11, αMeL13, Orn16, Aib20, αMeY25; acylated K24, K28 (groups as in name); C-terminal amide
B5: Y-Aib-EGT-αMeF(2F)-TSD-4Pal-αMeS-I-αMeL-LD-Orn-IAQ-Aib-K((2-[2-(2-Amino-ethoxy)-ethoxy]-acetyl)2-(γ-Glu)-CO-(CH2)12-CO2H)FI-(D-Glu)-αMeY-LIK((2-[2-(2-Amino-etho … (peptide)
peptide: B3 peptide with K24X, E28K
modifications: Aib2, αMeF(2F)6, 4Pal10, αMeS11, αMeL13, Orn16, Aib20, D-Glu24, αMeY25; acylated K21, K28 (groups as in name); C-terminal amide
B6: Y-Aib-EGT-αMeF(2F)-TSD-4Pal-SI-αMeL-LD-Orn-K((2-[2-(2-Amino-ethoxy)-ethoxy]-acetyl)2-(γ-Glu)-CO-(CH2)12-CO2H)AQ-Aib-EFI-(D-Glu)-αMeY-LIEGGK((2-[2-(2-Amino-ethox … (peptide)
peptide: YXEGTXTSDXSIXLDXKAQXEFIXXLIEGGKSSGAPPPX
modifications: Aib2, αMeF(2F)6, 4Pal10, αMeL13, Orn16, Aib20, D-Glu24, αMeY25, Orn39; acylated K17, K31 (groups as in name); C-terminal amide
B7: Y-Aib-EGT-αMeF(2F)-TSD-4Pal-SI-αMeL-LD-Orn-K((2-[2-(2-Amino-ethoxy)-ethoxy]-acetyl)2-(γ-Glu)-CO-(CH2)i2-CO2H)AQ-Aib-4Pal-FI-(D-Glu)-αMeY-LIEGGK((2-[2-(2-Amino-e … (peptide)
peptide: B6 peptide with E21X, X39S
modifications: Aib2, αMeF(2F)6, 4Pal10, αMeL13, Orn16, Aib20, 4Pal21, D-Glu24, αMeY25; acylated K17, K31 (groups as in name); C-terminal amide
B8: Y-Aib-EGT-αMeF(2F)-TSD-4Pal-Tle-I-αMeL-LD-Orn-K((2-[2-(2-Amino-ethoxy)-ethoxy]-acetyl)2-(γ-Glu)-CO-(CH2)12-CO2H)AQ-Aib-EFI-(D-Glu)-αMeY-LIEGGK((2-[2-(2-Amino-et … (peptide)
peptide: B6 peptide with S11X, X39S
modifications: Aib2, αMeF(2F)6, 4Pal10, Tle11, αMeL13, Orn16, Aib20, D-Glu24, αMeY25; acylated K17, K31 (groups as in name); C-terminal amide
B9: Y-Aib-EGT-αMeF(2F)-TSD-4Pal-αMeS-I-αMeL-LD-Orn-K((2-[2-(2-Amino-ethoxy)-ethoxy]-acetyl)2-(γ-Glu)-CO-(CH2)12-CO2H)AQ-Aib-EFI-(D-Glu)-αMeY-LIEGGK((2-[2-(2-Amino-e … (peptide)
peptide: B6 peptide with S11X, X39S
modifications: Aib2, αMeF(2F)6, 4Pal10, αMeS11, αMeL13, Orn16, Aib20, D-Glu24, αMeY25; acylated K17, K31 (groups as in name); C-terminal amide
B10: Y-Aib-EGT-αMeF(2F)-TSD-4Pal-Dap-I-αMeL-LD-Orn-K((2-[2-(2-Amino-ethoxy)-ethoxy]-acetyl)2-(γ-Glu)-CO-(CH2)12-CO2H)AQ-Aib-EFI-(D-Glu)-αMeY-LIEGGK((2-[2-(2-Amino-et … (peptide)
peptide: B6 peptide with S11X, X39S
modifications: Aib2, αMeF(2F)6, 4Pal10, Dap11, αMeL13, Orn16, Aib20, D-Glu24, αMeY25; acylated K17, K31 (groups as in name); C-terminal amide
B11: Y-Aib-EGT-αMeF(2F)-TSD-4Pal-Ac5c-I-αMeL-LD-Orn-K((2-[2-(2-Amino-ethoxy)-ethoxy]-acetyl)2-(γ-Glu)-CO-(CH2)12-CO2H)AQ-Aib-EFI-(D-Glu)-αMeY-LIEGGK((2-[2-(2-Amino-e … (peptide)
peptide: B6 peptide with S11X, X39S
modifications: Aib2, αMeF(2F)6, 4Pal10, Ac5c11, αMeL13, Orn16, Aib20, D-Glu24, αMeY25; acylated K17, K31 (groups as in name); C-terminal amide
B12: Y-Aib-EGT-αMeF(2F)-TSDY-Dap-I-αMeL-LD-Orn-K((2-[2-(2-Amino-ethoxy)-ethoxy]-acetyl)2-(γ-Glu)-CO-(CH2)12-CO2H)AQ-Aib-EFI-(D-Glu)-αMeY-LIEGGK((2-[2-(2-Amino-ethoxy … (peptide)
peptide: B6 peptide with X10Y, S11X, X39S
modifications: Aib2, αMeF(2F)6, Dap11, αMeL13, Orn16, Aib20, D-Glu24, αMeY25; acylated K17, K31 (groups as in name); C-terminal amide

These binders were tested against T1, human GIP receptor (assay: cell-based or functional assay).
With B1 the “cAMP EC50 (1.0% HSA)” value was 1.24 nM and the “cAMP Emax (1.0% HSA)” value was 80.7%. In the case of B2, the “cAMP EC50 (1.0% HSA)” value is reported as 0.242 nM and the “cAMP Emax (1.0% HSA)” value is reported as 77.6%. In the case of B3, the “cAMP EC50 (1.0% HSA)” value is reported as 0.925 nM and the “cAMP Emax (1.0% HSA)” value is reported as 91.3%. With B4 the “cAMP EC50 (1.0% HSA)” value was 5.31 nM and the “cAMP Emax (1.0% HSA)” value was 63.4%. In the case of B5, the “cAMP EC50 (1.0% HSA)” value is reported as 7.84 nM and the “cAMP Emax (1.0% HSA)” value is reported as 62.7%. With B6 the “cAMP EC50 (1.0% HSA)” value was 1.34 nM and the “cAMP Emax (1.0% HSA)” value was 93%. In the case of B7, the “cAMP EC50 (1.0% HSA)” value is reported as 0.718 nM and the “cAMP Emax (1.0% HSA)” value is reported as 89.6%. With B8 the “cAMP EC50 (1.0% HSA)” value was 6.09 nM and the “cAMP Emax (1.0% HSA)” value was 75.3%. B9 was tested, and the “cAMP EC50 (1.0% HSA)” value was 4.38 nM and the “cAMP Emax (1.0% HSA)” value was 95.6%. With B10 the “cAMP EC50 (1.0% HSA)” value was 2.45 nM and the “cAMP Emax (1.0% HSA)” value was 77.1%. B11 was tested, and the “cAMP EC50 (1.0% HSA)” value was 2.16 nM and the “cAMP Emax (1.0% HSA)” value was 64.5%. In the case of B12, the “cAMP EC50 (1.0% HSA)” value is reported as 2.7 nM and the “cAMP Emax (1.0% HSA)” value is reported as 83.7%.

The binders below were run against human GLP-1 receptor (human, UniProt P43220 24-463) (assay: cell-based or functional assay).
For B1, the “cAMP EC50 (1.0% HSA)” value was 21.2 nM and the “cAMP Emax (1.0% HSA)” value was 109%. With B2 the “cAMP EC50 (1.0% HSA)” value was 3.03 nM and the “cAMP Emax (1.0% HSA)” value was 98.1%. B3 was tested, and the “cAMP EC50 (1.0% HSA)” value was 14.8 nM and the “cAMP Emax (1.0% HSA)” value was 107%. With B4 the “cAMP EC50 (1.0% HSA)” value was 32.3 nM and the “cAMP Emax (1.0% HSA)” value was 117%. With B5 the “cAMP EC50 (1.0% HSA)” value was 87.8 nM and the “cAMP Emax (1.0% HSA)” value was 118%. For B6, the “cAMP EC50 (1.0% HSA)” value was 70.5 nM and the “cAMP Emax (1.0% HSA)” value was 103%. B7 was tested, and the “cAMP EC50 (1.0% HSA)” value was 36 nM. B8 was tested, and the “cAMP EC50 (1.0% HSA)” value was 62.2 nM and the “cAMP Emax (1.0% HSA)” value was 109%. For B9, the “cAMP EC50 (1.0% HSA)” value was 40.3 nM and the “cAMP Emax (1.0% HSA)” value was 102%. In the case of B10, the “cAMP EC50 (1.0% HSA)” value is reported as 70 nM and the “cAMP Emax (1.0% HSA)” value is reported as 100%. For B11, the “cAMP EC50 (1.0% HSA)” value was 94.2 nM and the “cAMP Emax (1.0% HSA)” value was 99%. B12 was tested, and the “cAMP EC50 (1.0% HSA)” value was 26.6 nM.

What follows are binders tested against human glucagon receptor (human, UniProt P47871 26-477) (assay: cell-based or functional assay).
With B1 the “cAMP EC50 (1.0% HSA)” value was greater than 9950 nM. With B2 the “cAMP EC50 (1.0% HSA)” value was greater than 9950 nM. With B3 the “cAMP EC50 (1.0% HSA)” value was greater than 9950 nM. B4 was tested, and the “cAMP EC50 (1.0% HSA)” value was greater than 9950 nM. In the case of B5, the “cAMP EC50 (1.0% HSA)” value is reported as greater than 9950 nM. B6 was tested, and the “cAMP EC50 (1.0% HSA)” value was greater than 9950 nM. B7 was tested, and the “cAMP EC50 (1.0% HSA)” value was greater than 9950 nM. With B8 the “cAMP EC50 (1.0% HSA)” value was greater than 9950 nM. With B9 the “cAMP EC50 (1.0% HSA)” value was greater than 9950 nM. For B10, the “cAMP EC50 (1.0% HSA)” value was greater than 9950 nM. With B11 the “cAMP EC50 (1.0% HSA)” value was greater than 9950 nM. For B12, the “cAMP EC50 (1.0% HSA)” value was greater than 9950 nM.
